In article PMC10641899, “Identification of HuR–RNA Interfering Compounds by Dynamic Combinatorial Chemistry and Fluorescence Polarization”:

Molecular target: HuR RRM1+2 (RRM1/2) (UniProt Q15717 1-186)
Assay: fluorescence polarization; 2.4 uM HuR RRM1/2, 45 nM RNA, 15% DMSO; complex 105 mP vs free RNA 35 mP; FP: PBS (20 mM sodium phosphate, 150 mM NaCl, 1 mM DTT, 0.05% Pluronic-127, 15% DMSO), 293 K; pH not stated
Details: protein: recombinant; tags: N-terminal His6-TEV, tag cleaved and removed; label: 5'-FAM; single strand

HuR RRM1+2 (RRM1/2), sequence (Q15717 1-186): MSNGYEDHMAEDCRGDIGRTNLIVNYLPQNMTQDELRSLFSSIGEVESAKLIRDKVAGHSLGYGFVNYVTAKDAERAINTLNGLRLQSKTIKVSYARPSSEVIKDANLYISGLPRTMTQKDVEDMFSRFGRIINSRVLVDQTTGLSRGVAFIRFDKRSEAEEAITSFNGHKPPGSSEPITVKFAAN

UAUUUAUUUA (ssRNA) [5'-FAM ARE RNA probe]
binding result: binds
